Assay results: the supplement of paper PMC10724198
± gives the standard deviation of the averaged measurements.

test system: Saccharomyces cerevisiae; assay: protein stability index of tFT-peptide fusion (C-terminal peptide) (PSI (0-1 scale)); higher = more stable (slower turnover); conditions: genetic background: wild type; temperature: 30 C
Protocol: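 Multiplexed protein stability (MPS) profiling in S. cerevisiae. Random 12-aa peptides (tFT-X12 library) are fused to the C-terminus of a sfGFP-mCherry tandem fluorescent timer, after mCherry and a GGGS linker. Cells are FACS-sorted into 8 mCherry/sfGFP bins and deep-sequenced. The protein stability index (PSI) is the read-weighted bin average, scaled from 0 (unstable) to 1 (stable). Only peptides with >10 reads are reported; cells were grown at 30 °C in SC-His with glucose.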
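Also: PSI is a weighted mean of sequencing reads over stability bins, variants kept only with over 10 reads, mCherry proximal and sfGFP distal, peptide attached via GGGS linker.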

Sequence	protein stability index
ARLDVFTMYKDR	0.748 ± 0.056
ARLRSTPVVLPT	0.668 ± 0.024
ARLSHLQSLRFI	0.5476 ± 0.0012
ARLSNLPPSPPR	0.678 ± 0.032
ARNGVCTERSVL	0.691 ± 0.028
ARNNVRKTEQQC	0.717 ± 0.11
ARPPPPPPSVDP	0.719 ± 0.011
ARPPSPRPPPAP	0.675 ± 0.062
ARPRSGIRGSGV	0.6848 ± 0.0048
ARRIEGADAERG	0.668 ± 0.048
ARRVILRANGRI	0.668 ± 0.035
ARSALFRCGSIA	0.678 ± 0.02
ARTILGSFILHP	0.662 ± 0.049
ARYTGPTRIRAE	0.672 ± 0.1
ASAWHGLVFPPF	0.779 ± 0.01
ASCQRCGSVLDL	0.697 ± 0.014
ASDMHRTNKPRE	0.671 ± 0.085
ASFWLPSNLLPI	0.7322 ± 0.0013
ASGGWGVGCPGV	0.716 ± 0.041
ASGKRSGPNPCR	0.72 ± 0.022
ASGWWGGAVGLR	0.68375 ± 0.00064
ASKKIDIEKRGT	0.705 ± 0.14
ASLPDHYPGPKI	0.759 ± 0.27
ASPRLPSPLSLT	0.718 ± 0.12
ASRRASLSLRGP	0.73 ± 0.022

Sequence	protein stability index
ASRRSRLPWLLL	0.629 ± 0.0083
ASRSRFMREQMV	0.567 ± 0.027
ASRWGYSATTVG	0.697 ± 0.026
ASYVFVVEGGGG	0.609 ± 0.018
ATDAWNKNKESS	0.542 ± 0.04
ATHPGCATPDAH	0.704 ± 0.015
ATPAPRGEVLVP	0.6369 ± 0.0034
ATPGALVSHPTL	0.729 ± 0.049
ATPPHLLPAPLA	0.656 ± 0.011
ATSYRPPHFAIP	0.693 ± 0.011
ATVARNTDTSSP	0.679 ± 0.017
ATVYFCKVCGGR	0.687 ± 0.019
AVDPGASFPVSV	0.698 ± 0.0086
AVGFFAASVPGF	0.7293 ± 0.0069
AVGMGCLSFFVV	0.553 ± 0.056
AVGMVLEYFTLG	0.671 ± 0.029
AVRCEEKGLLLS	0.674 ± 0.017
AVRVSRFSCGGW	0.717 ± 0.038
AVSCTAWVTALG	0.522 ± 0.012
AVSSGPGSCSNP	0.668 ± 0.013
AVVRGRADCVMV	0.656 ± 0.017
AVVTVVDRVVRE	0.594 ± 0.032
AVVYRGGRGGIS	0.775 ± 0.047
AVWLGVGGRFVG	0.781 ± 0.053
AVWLVVRGVRGR	0.679 ± 0.034

Sequence	protein stability index
AVYWRRIRRGRA	0.6714 ± 0.0018
AWDGVESGRGLE	0.67797 ± 0.00016
AWFCLGGRRGMV	0.685 ± 0.023
AWGFHDAFGLGC	0.605 ± 0.032
AWGGGSVVFWAV	0.692 ± 0.055
AWGGRVGWPKRR	0.734 ± 0.052
AWGPGCVVRGRE	0.7151 ± 0.0012
AWVCRLDGPVGG	0.634 ± 0.04
AWVLVVLGSSHR	0.586 ± 0.05
AWVVVGEGKGWR	0.717 ± 0.035
AWWWGCSSIGYW	0.787 ± 0.085
AYCGGSNKCTTE	0.732 ± 0.026
AYCGLEGFLGLG	0.688 ± 0.051
AYLGFYLLPYSS	0.717 ± 0.13
AYRKQGRGERKG	0.65 ± 0.011
AYRLWQTESKFD	0.699 ± 0.057
CAGSRIYCVSLS	0.641 ± 0.062
CASGKVCVRFCW	0.683 ± 0.033
CAVPTCSRVPIV	0.601 ± 0.078
CCAVLSSMSSFD	0.668 ± 0.053
CCFFPSLRSPSF	0.726 ± 0.011
CCLSISSSLLDL	0.675 ± 0.13
CCLSVSSHLPHS	0.7096 ± 0.00068
CCPHMLLVLTNI	0.509 ± 0.011
CCRDLWVWLVKW	0.619 ± 0.071

Sequence	protein stability index
CCSLIPRAPSGR	0.687 ± 0.051
CDWQMMKVQERS	0.698 ± 0.021
CECRCECGIGDK	0.632 ± 0.096
CEYRRLVISVFD	0.547 ± 0.028
CFAPRAPIRRFF	0.733 ± 0.032
CFCSLLSPSLFL	0.751 ± 0.091
CFEGPSSRRYFV	0.699 ± 0.083
CFGSRMGVVGFC	0.726 ± 0.065
CFGVSVYIGLGV	0.588 ± 0.011
CFGYRGAPFCGQ	0.669 ± 0.063
CFKPLRLEPGCC	0.665 ± 0.094
CFLCLAYGFFSF	0.571 ± 0.03
CFLVLFAHPFVL	0.555 ± 0.007
CFPLSPSCIFLR	0.464 ± 0.077
CFSRCLSLLSSS	0.636 ± 0.021
CGAALCSWEVVV	0.627 ± 0.018
CGCVAVNSFPVL	0.69 ± 0.011
CGGGGVVGAGWG	0.728 ± 0.061
CGGSARAGVVFL	0.699 ± 0.066
CGGWTRRSGDMV	0.678 ± 0.042
CGHAGQTPRTSR	0.718 ± 0.065
CGISTRYHNRES	0.696 ± 0.023
CGLLEGGRCRKE	0.7922 ± 0.0071
